Test results as given in the supplement of paper PMC10567573.

Assay: protein stability index of a GFP-peptide fusion (GPS, HEK-293T) (PSI 1-6); higher = more stable
Settings: c terminus: native
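Further: lentivirally expressed fusion library, cells FACS-sorted into six equal-sized GFP/DsRed ratio bins, PSI computed from sequencing read fractions per bin weighted by bin number.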

## LPALFTDLYSQEITAEEAREALPF [SNF8 addF]
parent: NP_009172.2
  protein stability index: 4.24

## EQRNSRWNTVLRAVKAKTHHLEPF [TRPA1 addF]
parent: NP_015628.1
  protein stability index: 4.28

## DGWIRVSSDNVADLHEKYSGSTPF [PSMB5 addF]
parent: NP_002788.1
  protein stability index: 3.79

## HSLRAVSTDPPHHDHHDEFCLMPF [BEX2 addF]
parent: NP_116010.1
  protein stability index: 3.66

## CQPISFSGFGAEDDDLGGLGLGPF [POLD2 addF]
parent: NP_006221.1
  protein stability index: 3.13
